From patent US10251942B2, “Immunity-inducing agent” (TORAY INDUSTRIES, INC., priority 2009, dated 2019)

Key:
[1] = tested on: murine neuroblastoma cell line N2a; assay: Anti-tumor effect of recombinant murine PDS5A protein in tumor-bearing mouse, therapeutic model, N2a; format: in vivo, A/J mice
Method: (§1) The murine neuroblastoma cell line N2a was subcutaneously transplanted to A/J mice (7 weeks old, male, purchased from Japan SLC) in an amount of 1×10^6 cells. When the tumor volume reached an average of 50 to 100 mm^3 (typically 7 days after the inoculation of the tumor), the mice were randomly divided into groups each of which contains 10 individuals, and subjected to evaluation of the anti-tumor effect of the recombinant murine PDS5A protein (therapeutic model). With 100 μg (0.5 ml) of the recombinant murine PDS5A protein purified as described above, 50 μg of poly I:C was mixed to prepare a therapeutic agent for cancer, and this therapeutic agent was subcutaneously administered to the tumor-bearing mice a total of 3 times at intervals of 1 week. […] On the other hand, in the negative control group to which PBS(−) was administered and the group to which poly I:C alone (50 μg) was administered, the mean tumor volumes on Day 31 after the administration were 1657 mm^3 and 932 mm^3, respectively.

[2] = tested on: murine neuroblastoma cell line N2a; assay: Anti-tumor effect of recombinant murine PDS5A protein, prophylactic model, N2a; format: in vivo, A/J mice
Method: (§2) Further, a therapeutic agent for cancer wherein 100 μg (0.5 ml) of the recombinant murine PDS5A protein and 50 μg poly I:C were mixed was prepared, and subcutaneously administered to A/J mice a total of 3 times at intervals of 1 week, followed by transplantation of 1×10^6 N2a cells to the mice and evaluation of the anti-tumor effect (prophylactic model). Ten individuals were included in each group, and, as controls for comparison, a negative control group to which PBS(−) was administered and a group to which poly I:C alone (50 μg) was administered were provided. […] On the other hand, in the negative control group to which PBS(−) was administered and the group to which poly I:C alone (50 μg) was administered, the mean tumor volumes on Day 40 after the administration were 1989 mm^3 and 1843 mm^3, respectively.

[3] = tested on: colon cancer cell line CT26; assay: Anti-tumor effect of recombinant murine PDS5A protein in tumor-bearing mouse, therapeutic model, CT26; format: in vivo, Balb/c mice
Method: as §1, with “same experiment was carried out also for a colon cancer model. The colon cancer” for “murine neuroblastoma”, “CT26” for “N2a”, “Balb/c” for “A/J”, “24” for “31”, “1449” for “1657”, “835” for “932”

[4] = tested on: colon cancer cell line CT26; assay: Anti-tumor effect of recombinant murine PDS5A protein, prophylactic model, CT26; format: in vivo, Balb/c mice
Method: as §2, with “Balb/c” for “A/J”, “CT26” for “N2a”, “31” for “40”, “1781” for “1989”, “1675” for “1843”

mammary gland tumor = assay: Anti-tumor effect of recombinant PDS5A protein in tumor-bearing dog, mammary gland tumor; format: in vivo; details: 500 μg protein with same amount of Freund's incomplete adjuvant, regional lymph node near tumor, 3 times at 1-week intervals; tumor about 500 mm^3 (dog-derived) or 1000 mm^3 (human-derived) at administration
Method: The anti-tumor effect of the recombinant protein described in Example 5 below in 3 individuals of tumor-bearing patient dogs (3 individuals having a mammary gland tumor) having a tumor mass in the epidermis was evaluated. Before administration, the antibody titer against the recombinant protein in the serum of each patient dog was measured by the method described in Example 5 (3), and, as a result, an antibody titer higher than that of a healthy dog was detected.
With 500 μg (2.5 ml) each of the recombinant PDS5A proteins (dog-derived and human-derived) purified as described above, the same amount of Freund's incomplete adjuvant (manufactured by Wako Pure Chemical Industries, Ltd.) was mixed to prepare 2 kinds of therapeutic agents for cancer, each of which was administered to a regional lymph node in the vicinity of the tumor a total of 3 times at 1-week intervals. […] On the other hand, in the negative control group to which PBS(−) was administered, the tumor volume, which had been about 800 mm^3 at the time of administration of PBS, became 1625 mm^3 on Day 21 after the administration.

[5] = Day 31 after the administration, poly I:C alone 50 μg

poly I:C [reference compound]
mean tumor volume [1, 5]: 932 mm^3
mean tumor volume ([2]; Day 40 after the administration, poly I:C alone 50 μg): 1843 mm^3
mean tumor volume ([3]; Day 24 after the administration, poly I:C alone 50 μg): 835 mm^3
mean tumor volume [4, 5]: 1675 mm^3

B1: recombinant murine PDS5A protein: full-length murine PDS5A (SEQ ID NO:6) expressed in E. coli, His tag cleaved; given mixed with poly I:C (protein, listed as Mus musculus)
chain: MDFTQPKPATALCGVVSADGKIAYPPGVKEITDKITTDEMIKRLKMVVKTFMDMDQDSEDEKQQYLPLALHLASEFFLRNPNKDVRLLVACCLADIFRIYAPEAPYTSHDKLKDIFLFITRQLKGLEDTKSPQFNRYFYLLENLAWVKSYNICFELEDCNEIFIQLFRTLFSVINNSHNTKVQMHMLDLMSSIIMEGDGVTQELLDSILINLIPAHKNLNKQSFDLAKVLLKRTVQTIEACIANFFNQVLVLGRSSVSDLSEHVFDLIQELFAIDPQLLLSVMPQLEFKLKSNDGEERLAVVRLLAKLFGSKDSDLATQNRPLWQCFLGRFNDIHVPVRLESVKFASHCLMNHPDLAKDLTEYLKVRSHDPEEAIRHDVIVTIITAAKRDLALVNDQLLGFVRERTLDKRWRVRKEAMMGLAQLYKKYCLHGEAGKEAAEKVSWIKDKLLHIYYQNSIDDKLLVEKIFAQYLVPHNLETEERMKCLYYLYASLDPNAVKALNEMWKCQNMLRSHVRELLDLHKQPTSEANCSAMFGKLMTIAKNLPDPGKAQDFVKKFNQVLGDDEKLRSQLELLISPTCSCKQADVCVREIARKLANPKQPTNPFLEMVKFLLERIAPVHIDSEAISALVKLMNKSIEGTADDEEEGVSPDSAIRSGLELLKVLSFTHPTSFHSAETYESLLQCLRMEDDKVAEAAIQIFRNTGHKIETDLPQIRSTLIPILHQKAKRGTPHQAKQAVHCIHAIFSNKEVQLAQIFEPLSRSLNADVPEQLITPLVSLGHISMLAPDQFASPMKSVVANFIVKDLLMNDRSTGEKNGKLWSPDEEVSPEVLAKVQAIKLLVRWLLGMKNNQSKSANSTLRLLSAMLVSEGDLTEQKRISKSDMSRLRLAAGSAIMKLAQEPCYHEIITPEQFQLCALVINDECYQVRQIFAQKLHKALVKLLLPLEYMAIFALCAKDPVKERRAHARQCLLKNISIRREYIKQNPMATEKLLSLLPEYVVPYMIHLLAHDPDFTRSQDVDQLRDIKECLWFMLEVLMTKNENNSHAFMKKMAENIKLTRDAQSPDESKTNEKLYTVCDVALCVINSKSALCNADSPKDPVLPMKFFTQPEKDFCNDKSYISEETRVLLLTGKPKPTGVLGTVNKPLSATGRKPYVRSAGTETGSNINANSELSPSAGSRSREQSSEASETGVSENEENPVRIISVTPVKNIDTVKNKEINSDQSTQGNISSDRGKKRIVTAAGAENIQKPDEKVDESGPPAPSKPRRGRRPKSESQGNATKNDDLNKPVSKGRKRAAGSQESLEAGNAKAPKLQDGAKKAVPAERQIDLQR
modifications: mixed with poly I:C
tumor outcome ([1]; Day 31, 100 μg protein mixed with 50 μg poly I:C, subcutaneous, 3 times at intervals of 1 week, PBS(−) group 1657 mm^3): complete regression of the tumor
tumor outcome ([2]; Day 40, 100 μg protein mixed with 50 μg poly I:C, subcutaneous, 3 times at intervals of 1 week before N2a transplantation, PBS(−) group 1989 mm^3): no development of a tumor
tumor outcome ([3]; Day 24, 100 μg protein mixed with 50 μg poly I:C, subcutaneous, 3 times at intervals of 1 week, PBS(−) group 1449 mm^3): complete regression of the tumor
tumor outcome ([4]; Day 31, 100 μg protein mixed with 50 μg poly I:C, subcutaneous, 3 times at intervals of 1 week before CT26 transplantation, PBS(−) group 1781 mm^3): no development of a tumor

B2: human PDS5A protein (SEQ ID NO:44): full-length human PDS5A (SEQ ID NO:44) expressed in E. coli; given mixed with Freund's incomplete adjuvant (protein, listed as Homo sapiens)
chain: MDFTAQPKPATALCGVVSADGKIAYPPGVKEITDKITTDEMIKRLKMVVKTFMDMDQDSEDEKQQYLPLALHLASEFFLRNPNKDVRLLVACCLADIFRIYAPEAPYTSHDKLKDIFLFITRQLKGLEDTKSPQFNRYFYLLENLAWVKSYNICFELEDCNEIFIQLFRTLFSVINNSHNKKVQMHMLDLMSSIIMEGDGVTQELLDSILINLIPAHKNLNKQSFDLAKVLLKRTVQTIEACIANFFNQVLVLGRSSVSDLSEHVFDLIQELFAIDPHLLLSVMPQLEFKLKSNDGEERLAVVRLLAKLFGSKDSDLATQNRPLWQCFLGRFNDIHVPVRLESVKFASHCLMNHPDLAKDLTEYLKVRSHDPEEAIRHDVIVTIITAAKRDLALVNDQLLGFVRERTLDKRWRVRKEAMMGLAQLYKKYCLHGEAGKEAAEKVSWIKDKLLHIYYQNSIDDKLLVEKIFAQYLVPHNLETEERMKCLYYLYASLDPNAVKALNEMWKCQNMLRSHVRELLDLHKQPTSEANCSAMFGKLMTIAKNLPDPGKAQDFVKKFNQVLGDDEKLRSQLELLISPTCSCKQADICVREIARKLANPKQPTNPFLEMVKFLLERIAPVHIDSEAISALVKLMNKSIEGTADDEEEGVSPDTAIRSGLELLKVLSFTHPTSFHSAETYESLLQCLRMEDDKVAEAAIQIFRNTGHKIETDLPQIRSTLIPILHQKAKRGTPHQAKQAVHCIHAIFTNKEVQLAQIFEPLSRSLNADVPEQLITPLVSLGHISMLAPDQFASPMKSVVANFIVKDLLMNDRSTGEKNGKLWSPDEEVSPEVLAKVQAIKLLVRWLLGMKNNQSKSANSTLRLLSAMLVSEGDLTEQKRISKSDMSRLRLAAGSAIMKLAQEPCYHEIITPEQFQLCALVINDECYQVRQIFAQKLHKALVKLLLPLEYMAIFALCAKDPVKERRAHARQCLLKNISIRREYIKQNPMATEKLLSLLPEYVVPYMIHLLAHDPDFTRSQDVDQLRDIKECLWFMLEVLMTKNENNSHAFMKKMAENIKLTRDAQSPDESKTNEKLYTVCDVALCVINSKSALCNADSPKDPVLPMKFFTQPEKDFCNDKSYISEETRVLLLTGKPKPAGVLGAVNKPLSATGRKPYVRSTGTETGSNINVNSELNPSTGNRSREQSSEAAETGVSENEENPVRIISVTPVKNIDPVKNKEINSDQATQGNISSDRGKKRTVTAAGAENIQQKTDEKVDESGPPAPSKPRRGRRPKSESQGNATKNDDLNKPINKGRKRAAVGQESPGGLEAGNAKAPKLQDLAKKAAPAERQIDLQR
modifications: mixed with Freund's incomplete adjuvant
day on which complete regression of the tumor was achieved (mammary gland tumor): 21 days
